Publication PMC4148589

Target: CaV1.1 chimera containing the I–II loop of the CaV2.1 α1A subunit (pc-α1SI–IIA)
Test: FRAP

skeletal muscle β1a subunit, GFP-tagged (pcDNA3-β1a-GFP), sequence (P19517 whole entry): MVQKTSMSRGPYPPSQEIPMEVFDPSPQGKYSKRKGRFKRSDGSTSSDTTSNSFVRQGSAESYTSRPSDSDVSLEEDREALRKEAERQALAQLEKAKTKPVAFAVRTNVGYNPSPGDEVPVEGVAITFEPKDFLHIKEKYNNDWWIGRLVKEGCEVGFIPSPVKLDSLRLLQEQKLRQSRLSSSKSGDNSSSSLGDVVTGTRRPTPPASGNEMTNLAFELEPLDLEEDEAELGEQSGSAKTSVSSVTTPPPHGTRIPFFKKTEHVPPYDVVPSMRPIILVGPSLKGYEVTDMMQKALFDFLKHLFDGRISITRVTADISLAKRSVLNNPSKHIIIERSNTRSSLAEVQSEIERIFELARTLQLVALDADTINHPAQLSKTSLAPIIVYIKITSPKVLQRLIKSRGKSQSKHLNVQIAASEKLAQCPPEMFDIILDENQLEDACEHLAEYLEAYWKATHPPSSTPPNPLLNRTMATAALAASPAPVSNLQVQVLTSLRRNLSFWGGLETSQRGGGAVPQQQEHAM

R75 (fractional fluorescence recovery 75 s after bleaching): 20.5%
Substance: skeletal muscle β1a subunit, GFP-tagged (pcDNA3-β1a-GFP) (from UniProt P19517 1-524) (natural protein)
